In the supplement of paper PMC7877785:
± gives the uncertainty stated by the source.

Experiment: self-splicing fitness, log relative to wild type (ln ratio); higher = more splicing; Tetrahymena group I intron in knt gene, E. coli kanamycin selection, DiMSum; sequences stand for … in CUCUCU…GGAGGGAAAAGUUAUCAGGCAUGCACCUGGUAGCUAGUCUUUAAACCAAUAGAUUGCAUCGGUUUAAAAGGCAAGACCGUCAAAUUGCGGGAAAGGGGUCAACAGCCGUUCAGUACCAAGUCUCAGGGGAAACUUUGAGAUGGCCUUGCAAAGGGUAUGGUAAUAAGCUGACGGACAUGGUCCUAACCACGCAGCCAAGUCCUAAGUCAACAGAUCUUCUGUUGAUAUGGAUGCAGUUCACAGACUAAAUGUCGGUCGGGGAAGAUGUAUUCUUCUCAUAAGAUAUAGUCGGACCUCUCCUUAAUGGGAGCUAGCGGAUGAAGUGAUGCAACACUGGAGCCGCUGGGAACUAAUUUGUAUGCGAAAGUAUAUUGAUUAGUUUUGGAGUACUCGUGGUCG
Outline: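 Six replicate transformations of E. coli BL21(DE3) with a pET-22b(+) library were grown overnight at 37°C or 30°C. The library randomised all eight P1ex-region intron nucleotides, the intron lying in the knt kanamycin-resistance gene, and plates were LB agar with or without 25 μg/mL kanamycin plus 100 μg/mL carbenicillin, 50 μM IPTG and 0.2% rhamnose. Pooled colonies were amplicon-sequenced on an Illumina HiSeq 2500, and fitness is the DiMSum error-weighted combination of wild-type-normalised replicate fold changes, kanamycin versus none.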

Sequence | self-splicing fitness (ln) (30 °C) | self-splicing fitness (ln) (37 °C)
CAAUAGCAAUAUUACGAAUG | -1.11 ± 0.076 | -0.357 ± 0.098
GUCCAGCAAUAUUACGGGGA | -2.41 ± 0.13 | -1.37 ± 0.12
UCAAAGCAAUAUUACGCGGG | -3.64 ± 0.19 | -2.14 ± 0.16
AAGGAGCAAUAUUACGAGUA | -3.6 ± 0.43 | -3.21 ± 0.4
AGGUAGCAAUAUUACGUUAC | -3.617 ± 0.033 | -2.85 ± 0.048
ACCGAGCAAUAUUACGCAGU | -3.67 ± 0.16 | -2.48 ± 0.16
CUACAGCAAUAUUACGGCAG | -1.07 ± 0.063 | -0.452 ± 0.088
AGCAAGCAAUAUUACGGUGC | -1.6 ± 0.11 | -3.4 ± 0.22
AUCGAGCAAUAUUACGGGCA | -1.99 ± 0.23 | -1.32 ± 0.27
CUUUAGCAAUAUUACGGGUC | -3.26 ± 0.17 | -1.32 ± 0.21
ACUCAGCAAUAUUACGCUGA | -3.74 ± 0.3 | -3.15 ± 0.34
CCAGAGCAAUAUUACGUGUC | -2.88 ± 0.21 | -2.29 ± 0.32
UCUCAGCAAUAUUACGGCAU | -2.27 ± 0.11 | -2.4 ± 0.16
CCACAGCAAUAUUACGAAUU | -3.64 ± 0.18 | -2.39 ± 0.17
CGCUAGCAAUAUUACGUCAG | -1.4 ± 0.12 | -0.542 ± 0.14
UGCCAGCAAUAUUACGGCUG | -3.47 ± 0.15 | -2.17 ± 0.16
ACAAAGCAAUAUUACGCCCC | -0.67 ± 0.27 | -0.241 ± 0.26
UGCUAGCAAUAUUACGCAUG | -3.03 ± 0.34 | -0.445 ± 0.19
GGAGAGCAAUAUUACGUAAG | -2.82 ± 0.19 | -0.478 ± 0.21
UAAUAGCAAUAUUACGAACG | -0.579 ± 0.071 | -0.187 ± 0.082
GCCCAGCAAUAUUACGUGGA | -0.734 ± 0.063 | 0.199 ± 0.076
GCCAAGCAAUAUUACGUAUG | -2.94 ± 0.15 | -1 ± 0.13
CGGAAGCAAUAUUACGUGCU | -3.85 ± 0.24 | -2.32 ± 0.23
UAAAAGCAAUAUUACGCGGA | -1.8 ± 0.08 | -0.32 ± 0.082
GUUCAGCAAUAUUACGACCG | -3.83 ± 0.18 | -1.93 ± 0.23

Sequence | self-splicing fitness (ln) (30 °C) | self-splicing fitness (ln) (37 °C)
UCGAAGCAAUAUUACGGAUG | -2.8 ± 0.13 | -1.68 ± 0.11
CUGGAGCAAUAUUACGUACA | – | -1.28 ± 0.48
AAAUAGCAAUAUUACGCGCA | -0.264 ± 0.092 | -0.103 ± 0.11
ACCAAGCAAUAUUACGCGGU | -3.54 ± 0.12 | -2.84 ± 0.16
CAUCAGCAAUAUUACGGAUG | -4 ± 0.14 | -2.94 ± 0.14
CUAAAGCAAUAUUACGGUAG | -0.409 ± 0.043 | -0.0448 ± 0.059
GGUGAGCAAUAUUACGAGCC | – | -1.52 ± 0.43
CUCCAGCAAUAUUACGGCUG | -2.12 ± 0.22 | -2.99 ± 0.4
GUUCAGCAAUAUUACGGUCU | -0.136 ± 0.047 | 0.327 ± 0.063
GUGUAGCAAUAUUACGGGUU | -2.77 ± 0.21 | -1.22 ± 0.17
CCUAAGCAAUAUUACGAUGU | -2.84 ± 0.12 | -2.03 ± 0.15
CGCCAGCAAUAUUACGAGGA | -3.07 ± 0.19 | -2.41 ± 0.22
UGCCAGCAAUAUUACGGUGC | -4.01 ± 0.18 | -2.14 ± 0.21
AGAUAGCAAUAUUACGGCGA | -0.537 ± 0.14 | -0.0635 ± 0.14
CCUUAGCAAUAUUACGGCGG | -2.92 ± 0.17 | -2.05 ± 0.21
UUGCAGCAAUAUUACGGUUU | -1.37 ± 0.085 | -0.603 ± 0.085
UCACAGCAAUAUUACGACUC | -3.43 ± 0.12 | -1.44 ± 0.13
UUACAGCAAUAUUACGGUUU | -0.925 ± 0.046 | 0.136 ± 0.066
GAGUAGCAAUAUUACGUAGA | -4.32 ± 0.28 | -2.18 ± 0.19
GCGUAGCAAUAUUACGGCCA | – | 0.769 ± 0.3
GGAAAGCAAUAUUACGUAUA | -2.2 ± 0.16 | -1.16 ± 0.18
GCCAAGCAAUAUUACGCAGA | -3.13 ± 0.16 | -2.22 ± 0.15
GUAAAGCAAUAUUACGGCCA | -0.497 ± 0.11 | 0.704 ± 0.17
AUUCAGCAAUAUUACGUUGA | -2.64 ± 0.1 | -1.34 ± 0.093
UAUCAGCAAUAUUACGCAAU | -1.96 ± 0.11 | -0.74 ± 0.1

Sequence | self-splicing fitness (ln) (30 °C) | self-splicing fitness (ln) (37 °C)
CCUGAGCAAUAUUACGUGCU | -3.25 ± 0.19 | -2.24 ± 0.2
CAUUAGCAAUAUUACGCAAG | -1.45 ± 0.1 | -0.813 ± 0.13
AACGAGCAAUAUUACGUAUC | -3.69 ± 0.4 | -3.55 ± 0.46
UAUGAGCAAUAUUACGUGGG | -3.55 ± 0.25 | -3.94 ± 0.39
CUUGAGCAAUAUUACGAUGC | -3.25 ± 0.3 | -2.5 ± 0.41
CAUCAGCAAUAUUACGGUGU | -4.64 ± 0.27 | -1.77 ± 0.12
AGCCAGCAAUAUUACGGCUC | -2.52 ± 0.18 | -3.14 ± 0.31
UCUGAGCAAUAUUACGAUGG | -1.42 ± 0.16 | -0.717 ± 0.2
CACCAGCAAUAUUACGAACU | -3.98 ± 0.2 | -2.05 ± 0.17
GAUCAGCAAUAUUACGUGAG | -0.0667 ± 0.052 | 0.101 ± 0.074
CCUUAGCAAUAUUACGGUAG | -4.09 ± 0.28 | -2.1 ± 0.23
AAUCAGCAAUAUUACGUCGG | -1.88 ± 0.1 | -1.02 ± 0.14
UUGCAGCAAUAUUACGUUGA | -1.61 ± 0.12 | -1.24 ± 0.12
UUGGAGCAAUAUUACGCGUU | -2.97 ± 0.47 | -2.47 ± 0.34
CUGGAGCAAUAUUACGCUUA | -2.59 ± 0.45 | -2.32 ± 0.35
AUAUAGCAAUAUUACGUGGG | -3.53 ± 0.28 | -3.28 ± 0.33
GCAAAGCAAUAUUACGUCUG | -2.54 ± 0.11 | -1.69 ± 0.085
CAGAAGCAAUAUUACGUUCC | – | -1.75 ± 0.47
UUUAAGCAAUAUUACGGGUU | -2.83 ± 0.3 | -1.67 ± 0.22
ACCCAGCAAUAUUACGGCCU | -0.518 ± 0.052 | 0.0547 ± 0.067
UAGGAGCAAUAUUACGCGGU | -1.52 ± 0.23 | –
UACUAGCAAUAUUACGAGUU | -2.16 ± 0.11 | -0.685 ± 0.1
GCGAAGCAAUAUUACGAAAA | -3.24 ± 0.43 | –
UAAAAGCAAUAUUACGUCAA | -1.57 ± 0.11 | -1.4 ± 0.098
CUCUAGCAAUAUUACGACAU | -3.866 ± 0.033 | -3.6 ± 0.044

Sequence | self-splicing fitness (ln) (30 °C) | self-splicing fitness (ln) (37 °C)
CCUAAGCAAUAUUACGGUGU | -4.62 ± 0.23 | -1.89 ± 0.16
GAAGAGCAAUAUUACGAGCG | -3.17 ± 0.2 | -0.882 ± 0.17
UGCCAGCAAUAUUACGCUAG | -4.69 ± 0.39 | -1.35 ± 0.22
GUUUAGCAAUAUUACGUCCG | -2.86 ± 0.2 | -1.89 ± 0.29
GCCAAGCAAUAUUACGAGUC | -1.58 ± 0.1 | -1.1 ± 0.12
GGGAAGCAAUAUUACGAUUU | -0.13 ± 0.1 | -0.16 ± 0.12
UUCAAGCAAUAUUACGUGAG | -0.36 ± 0.071 | 0.0932 ± 0.088
UACGAGCAAUAUUACGAGGG | -1.82 ± 0.12 | -2.11 ± 0.27
GCUAAGCAAUAUUACGCACG | -1.84 ± 0.14 | -0.0584 ± 0.14
AGAAAGCAAUAUUACGAUGC | -2.16 ± 0.14 | -1.38 ± 0.13
UUGAAGCAAUAUUACGGCAU | -0.14 ± 0.06 | 1.08 ± 0.08
CCUAAGCAAUAUUACGUGCC | -2.84 ± 0.3 | –
AGUUAGCAAUAUUACGAUAU | -1.55 ± 0.16 | -0.311 ± 0.19
CGUUAGCAAUAUUACGAAAU | -3.82 ± 0.35 | -2.2 ± 0.28
AGGCAGCAAUAUUACGUACU | -0.408 ± 0.079 | 0.323 ± 0.12
UCAAAGCAAUAUUACGGAGU | -3.11 ± 0.13 | -1.69 ± 0.14
GAUAAGCAAUAUUACGCAAC | – | -0.343 ± 0.46
CCAAAGCAAUAUUACGUCUA | -3.06 ± 0.23 | -2.06 ± 0.21
CAGUAGCAAUAUUACGGCCU | -3.02 ± 0.2 | -1.67 ± 0.17
UUAUAGCAAUAUUACGCAAA | -2.85 ± 0.22 | -1.51 ± 0.16
UAUGAGCAAUAUUACGUUCA | -1.29 ± 0.2 | -0.652 ± 0.22
UGCUAGCAAUAUUACGUCAA | -1.87 ± 0.13 | -1.13 ± 0.12
